According to paper PMC4809600, “The Influence of Chronic Wound Extracts on Inflammatory Cytokine and Histatin Stability” (PLoS ONE, 2016):

Experiments:
[1] = Stability in CWE with protease inhibitor cocktail (PIC), capillary zone electrophoresis; assay type: in vitro ADME, human; settings: 1 mg/ml in PBS mixed 1:1 with CWE (1 mg/ml protein, pool of 5 donors) in PBS containing PIC (final 1:140 v/v), 37°C, CZE, ratio to imidazole, 0 h = 100%
In short: (§1)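 Peptides or cytokines (1 mg/ml stock) mixed 1:1 with PBS or pooled chronic-wound extract (1 mg/ml protein, three pools of five donors), ±protease inhibitor cocktail, at 37 °C for up to 96 h. Analyzed by capillary zone electrophoresis (pH 2.5 phosphate, 200 nm), with peak ratio to imidazole standard relative to 0 h as % intact.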

[2] = Stability in PBS, capillary zone electrophoresis; assay type: physicochemical; settings: 1 mg/ml in PBS mixed 1:1 with PBS, 37°C, 96 h, CZE, UV 200 nm, ratio to imidazole internal standard, 0 h = 100%
Method: To determine the stability of the different peptides in CWE, histatins and cytokines were dissolved in PBS at 1 mg/ml. Histatins and cytokines were incubated in a 1:1 ratio with (i) PBS, (ii) CWE in PBS, or (iii) CWE in PBS containing PIC, in a total volume of 25 μl. Imidazole (Sigma-Aldrich) was added as an internal standard, with a final concentration of 100 μg/ml. The mixtures were incubated at 37°C, and samples were taken at 0, 24, 48, 72 and 96 h. For histatins containing mixtures, additional samples were taken after 2, 4, 8 and 16 h of incubation.
The samples were analyzed with a BioFocus 2000 capillary zone electrophoresis system (Bio-Rad Laboratories, Hercules, CA, USA) equipped with an uncoated fused-silica capillary of internal diameter 50 μm and a length of 24 cm. Samples were loaded by pressure injection (5 psi/sec). Separation was performed at 10 kV (cathode at the detector side) at 20°C using 0.1 M phosphate buffer (pH 2.5) as electrolyte and monitored continuously at 200 nm. Peaks were quantified with the BioFocus Integrator software. In order to quantify the percentage of intact peptides remaining after incubation with CWE, the ratios of histatins, rhIL-6 or rhCXCL8 to internal standard was set at 100% at 0h, and the ratios at the other incubation time points were related to this.

[3] = Stability in chronic wound extracts (CWE), capillary zone electrophoresis; assay type: in vitro ADME, human; settings: 37°C, CZE, 0 h = 100%; for Percentage intact, CWE 24h / Percentage intact, CWE 48h / Percentage intact, CWE 72h / Percentage intact, CWE 96h: 1 mg/ml in PBS mixed 1:1 with CWE (1 mg/ml protein, pool of 5 donors) in PBS, UV 200 nm, ratio to imidazole
In short: as §1

IL-6 CS: rhIL-6 from Cell Systems Biotechnology, Cat nr. CS-C1066
Percentage intact, CWE + PIC 24h ([1]; experiment 1 of 3): 96.0006%
Percentage intact, CWE + PIC 24h ([1]; experiment 2 of 3): 88.559%
Percentage intact, CWE + PIC 24h ([1]; experiment 3 of 3): 95.4415%
Percentage intact, CWE + PIC 48h ([1]; experiment 1 of 3): 84.6802%
Percentage intact, CWE + PIC 48h ([1]; experiment 2 of 3): 88.7813%
Percentage intact, CWE + PIC 48h ([1]; experiment 3 of 3): 87.103%
Percentage intact, CWE + PIC 72h ([1]; experiment 1 of 3): 88.9677%
Percentage intact, CWE + PIC 72h ([1]; experiment 2 of 3): 86.585%
Percentage intact, CWE + PIC 72h ([1]; experiment 3 of 3): 83.9413%
Percentage intact, CWE + PIC 96h ([1]; experiment 1 of 3): 78.2271%
Percentage intact, CWE + PIC 96h ([1]; experiment 2 of 3): 83.1651%
Percentage intact, CWE + PIC 96h ([1]; experiment 3 of 3): 79.7008%
Percentage intact, PBS 96h ([2]; experiment 1 of 3): 91.7071%
Percentage intact, PBS 96h ([2]; experiment 2 of 3): 94.938%
Percentage intact, PBS 96h ([2]; experiment 3 of 3): 88.4799%
Percentage intact, CWE 24h ([3]; experiment 1 of 3): 87.5606%
Percentage intact, CWE 24h ([3]; experiment 2 of 3): 96.7909%
Percentage intact, CWE 24h ([3]; experiment 3 of 3): 93.0609%
Percentage intact, CWE 48h ([3]; experiment 1 of 3): 82.5586%
Percentage intact, CWE 48h ([3]; experiment 2 of 3): 90.261%
Percentage intact, CWE 48h ([3]; experiment 3 of 3): 82.6368%
Percentage intact, CWE 72h ([3]; experiment 1 of 3): 76.7459%
Percentage intact, CWE 72h ([3]; experiment 2 of 3): 64.558%
Percentage intact, CWE 72h ([3]; experiment 3 of 3): 69.7531%
Percentage intact, CWE 96h ([3]; 96 h, experiment 1 of 3): 67.9184%
Percentage intact, CWE 96h ([3]; 96 h, experiment 2 of 3): 56.1934%
Percentage intact, CWE 96h ([3]; 96 h, experiment 3 of 3): 44.5849%
Starting material remaining intact after 96 h in CWE ([3]; 1 mg/ml in PBS mixed 1:1 with CWE (1 mg/ml protein, pools of 5 donors), 96 h, mean of 3 independent experiments): 56%
